The values below are quoted from earlier work in publication PMC4771075.

This data set concerns the target kappa opioid receptor (Rattus norvegicus) (UniProt P34975). Kind of data set: radioligand.

kappa opioid receptor (Rattus norvegicus), sequence (P34975 whole entry): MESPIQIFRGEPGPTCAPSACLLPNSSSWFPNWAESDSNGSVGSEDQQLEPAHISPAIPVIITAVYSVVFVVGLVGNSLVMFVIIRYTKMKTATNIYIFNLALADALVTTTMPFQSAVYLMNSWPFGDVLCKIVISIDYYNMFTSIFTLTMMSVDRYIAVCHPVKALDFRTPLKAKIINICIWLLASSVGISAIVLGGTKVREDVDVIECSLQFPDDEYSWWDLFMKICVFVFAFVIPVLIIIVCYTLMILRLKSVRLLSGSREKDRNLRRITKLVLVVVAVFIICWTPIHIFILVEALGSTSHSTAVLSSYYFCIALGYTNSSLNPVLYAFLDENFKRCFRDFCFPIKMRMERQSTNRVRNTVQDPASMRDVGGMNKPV

As to “Dyn A(1-11)NH2 1-11 (from UniProt P01213)”, the Ki (as a rule, the equilibrium dissociation constant of an inhibitor or competing ligand from its target) is 0.57 nM.
